Source: EP1117687B1

target: Mouse MHC Class I (mouse B6 class I antigens, H-2^b: D^b or K^b) on RMA-S cells (mouse); assay: RMA-S MHC stabilisation, flow cytometry with FITC anti-D^b or anti-K^b

Binding Affinity to Mouse MHC Class I (percent increase of D^b or K^b on RMA-S cells), 1%:
WT1 peptide P122-130 …
WT1 peptide P125-133 …
WT1 peptide P128-136 …
WT1 peptide P123-131 …
WT1 peptide P120-128 …
SSGQARMFP [WT1 peptide P121-129 …]
QARMFPNAP [WT1 peptide P124-132 …]
PNAPYLPSC [WT1 peptide P129-137 …]
APYLPSCLE [WT1 peptide P131-139 …]

Binding Affinity to Mouse MHC Class I (percent increase of D^b or K^b on RMA-S cells), 79%:
WT1 peptide P130-138 …
WT1 peptide p126-134 …

Binding Affinity to Mouse MHC Class I (percent increase of D^b or K^b on RMA-S cells), 2%:
WT1 peptide P119-127 …
WT1 peptide P118-126 …
PSQASSGQA [WT1 peptide P117-125 …]
MFPNAPYLP [WT1 peptide P127-135 …]
